Data from paper PMC3728920, “In situ structural analysis of the Yersinia enterocolitica injectisome” (eLife, 2013).

Molecular target: the molecule itself
Experiment: cryo-EM structure; cryo-electron tomography and sub-volume averaging (~3 nm) of purified YscC (0.2 mg/ml) reconstituted into liposomes of E. coli polar lipids at 5:1 lipid-to-protein ratio; oligomers isolated beforehand in DDM by sucrose gradient, MonoQ and Superose 6 gel filtration

B1: YscC (outer membrane secretin of the Yersinia enterocolitica injectisome) (natural protein)
chain: QELDWLPIPYVYVAKGESLRDLLTDFGANYDATVVVSDKINDKVSGQFEHDNPQDFLQHIASLYNLVWYYDGNVLYIFKNSEVASRLIRLQESEAAELKQALQRSGIWEPRFGWRPDASNRLVYVSGPPRYLELVEQTAAALEQQTQIRSEKTGALAIEIFPLKYASASDRTIHYRDDEVAAPGVATILQRVLSDATIQQVTVDNQRIPQAATRASAQARVEADPSLNAIIVRDSPERMPMYQRLIHALDKPSARIEVALSIVDINADQLTELGVDWRVGIRTGNNHQVVIKTTGDQSNIASNGALGSLVDARGLDYLLARVNLLENEGSAQVVSRPTLLTQENAQAVIDHSETYYVKVTGKEVAELKGITYGTMLRMTPRVLTQGDKSEISLNLHIEDGNQKPNSSGIEGIPTISRTVVDTVARVGHGQSLIIGGIYRDELSVALSKVPLLGDIPYIGALFRRKSELTRRTVRLFIIEPRIIDEGIAHHLALGNGQDLRTGILTVDEISNQSTTLNKLLGGSQCQPLNKAQEVQKWLSQNNKSSYLTQCKMDKSLGWRVVEGACTPAQSWCVSAPKRGVL
notes: YscC, secretin of the Ysc injectisome, Yersinia enterocolitica E40; full-length yscC with a stop codon amplified from the pYVe40 plasmid and cloned into pBAD/mycHisA (pMA6); The signal peptide is probably cut on export (surmise); The introduction cites 12-15 subunits for secretin rings; also called secretin YscC; YscC oligomers
- binding result: binds
